Key:
Assay in all cases: SEC; gel filtration during purification, Superdex 200 increase 10/300 GL in gel-filtration buffer (Table S2), non-actinic dim green light; self-association (dimer)
[1] = biological target: Idiomarina species A28L phytochrome-activated diguanylate cyclase (IsPadC), wild type (Idiomarina sp. A28L)
[2] = biological target: IsPadC D199L (Idiomarina sp. A28L)
[3] = biological target: IsPadC D199N (Idiomarina sp. A28L)
[4] = biological target: IsPadC G449E (Idiomarina sp. A28L)
[5] = biological target: IsPadC H193L (Idiomarina sp. A28L)
[6] = biological target: IsPadC H193Q (Idiomarina sp. A28L)
[7] = biological target: IsPadC R467S (Idiomarina sp. A28L)

Idiomarina species A28L phytochrome-activated diguanylate cyclase (IsPadC), wild type (enzyme)
stoichiometry N [1]: 2

IsPadC D199L (enzyme)
stoichiometry N [2]: 2

IsPadC D199N (enzyme)
stoichiometry N [3]: 2

IsPadC G449E (enzyme)
stoichiometry N [4]: 2

IsPadC H193L (enzyme)
stoichiometry N [5]: 2

IsPadC H193Q (enzyme)
stoichiometry N [6]: 2

IsPadC R467S (enzyme)
stoichiometry N [7]: 2

— publication PMC11035067
